Consider 16 molecules from patent US20260207798A1, “CYCLIC PEPTIDES AS PET IMAGING AGENTS OF GRANZYME B” (priority 2022, published 2026).

For the experiment, the target named is T1, human Granzyme B (human, UniProt P10144 21-247).
T1 construct: Captured on a Series S Streptavidin chip for SPR; also called hGranzyme B; GzmB
The experiment is described as follows: SPR, Biacore 8k+, hGranzyme B captured on SA chip, single cycle kinetics, 1:1 model. As for the experimental part: The kinetics of test peptide binding to human Granzyme B (hGranzyme B) was determined by SPR. All experiments were performed at 25° C. using the Biacore 8k+ instrument (Cytiva, Marlborough, MA). The Biacore 8k+ Insight Evaluation Software Version 3.0 was used to fit the data with a 1:1 binding model to determine the association rate constant kₐ (M⁻¹s⁻¹, where “M” ~equals molar and “s” ~equals seconds) and the dissociation rate constant kd (s⁻¹). These rate constants were used to calculate the equilibrium dissociation constant. KD (M)=kd/kₐ.
To measure the binding kinetics of peptides of interest, surfaces were prepared by a capture method to a Series S Streptavidin (SA) chip using a 1×HBS-EP+ running buffer (Cytiva). hGranzyme B was diluted to 10 μg/mL in IX HBS-EP+ and flowed over spot 2 of each flow cell on the chip at a flow rate of 10 ul/min for 20 s to achieve a level of capture of ~1100 RU. An unmodified spot 1 of each flow cell was used as a matrix binding control or reference surface. Binding kinetics were measured using single cycle kinetics at 25° C. by injecting 5 concentrations with 3-fold serial dilutions of test peptides from 0.01 μM to 1 μM. Compound dilutions were performed manually in a running buffer containing 1×HBS-EP+(Cytiva), and a final concentration of 2% DMSO. The interaction analyses over hGranzyme B, were performed using a 120 s association time and a 900 s dissociation time. All experiments were conducted at a flow rate of 50 μL/min with a data collection rate of 10 Hz.
Peptide dilution series included 2 zero concentration points (no compound) which were averaged and subtracted from the peptide concentration injection as DMSO control responses. Binding data acquired from the reference surface (matrix binding control) were subtracted from the binding data for hGranzyme B surface on the chip to determine specific binding. Next, the association phase data were solvent corrected to account for any signal fluctuation throughout the experiment due to subtle DMSO concentration differences. Corrected response data were analyzed using the Biacore 8k+ Evaluation Software Version 3.0 according to the manufacturer. SPR data for representative compounds of the disclosure are found in Table 8.
(In general: SPR reads the build-up and loss of mass on a sensor chip optically.)

Bridge positions count the residues as written; N and C are the ends. Square brackets hold non-standard residues; d marks the D form. * marks the point of attachment. Peg4 = polyethylene glycol with 4 units (PEG4); NEtAla = CCN[C@@H](C)C(=O)O; Propionyl = CCC(=O)*

T1 sequence (P10144 21-247 limits assumed): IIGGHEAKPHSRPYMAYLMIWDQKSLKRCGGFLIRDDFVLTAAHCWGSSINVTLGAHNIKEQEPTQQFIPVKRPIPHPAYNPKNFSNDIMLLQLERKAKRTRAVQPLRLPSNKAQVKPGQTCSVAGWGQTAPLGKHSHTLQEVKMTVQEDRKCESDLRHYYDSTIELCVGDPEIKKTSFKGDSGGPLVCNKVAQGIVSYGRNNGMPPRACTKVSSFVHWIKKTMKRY

As for {CH2CO}-FNFEDQSADTWQPCGGK(RESCA‑1)-NH2 (thioether N-14) [Compound 3a], the dissociation constant Kd – broadly, the concentration at which binding is half-saturated – came out at 15.1 nM.

As to {CH2CO}-FNFEDQSADTWQPCGGK(AF647)-NH2 (thioether N-14) [Compound 9a], binding was characterised by a dissociation constant (Kd) of 13 nM. To {CH2CO}-FNFEDQSADTWQPCGGK(Propionyl)-NH2 (thioether N-14) [Compound 4a] belongs 11.7 nM. In the case of {CH2CO}-FNFEDQSADTWQPCGGK(Peg4)-NH2 (thioether N-14) [Compound 16a], binding was characterised by a dissociation constant (Kd) of 19 nM.

B1: Compound 70a (peptide)
peptide: {CH2CO}-LNFEDQSPDTWQPCG-NH2
modifications: thioether N-14
SMILES: CC(C)C[C@@H]1NC(=O)CSC[C@@H](C(=O)NCC(N)=O)NC(=O)[C@@H]2CCCN2C(=O)[C@H](CCC(N)=O)NC(=O)[C@H](Cc2c[nH]c3ccccc23)NC(=O)[C@H]([C@@H](C)O)NC(=O)[C@H](CC(=O)O)NC(=O)[C@@H]2CCCN2C(=O)[C@H](CO)NC(=O)[C@H](CCC(N)=O)NC(=O)[C@H](CC(=O)O)NC(=O)[C@H](CCC(=O)O)NC(=O)[C@H](Cc2ccccc2)NC(=O)[C@H](CC(N)=O)NC1=O
With B1, the Kd was 18.5 nM. The Kd values of the last two molecules are within 1.5-fold of each other.

B2: Compound 85a (peptide)
peptide: {CH2CO}-FNFEDQSAITWQPCG-NH2
modifications: thioether N-14
SMILES: CC[C@H](C)[C@@H]1NC(=O)[C@H](C)NC(=O)[C@H](CO)NC(=O)[C@H](CCC(N)=O)NC(=O)[C@H](CC(=O)O)NC(=O)[C@H](CCC(=O)O)NC(=O)[C@H](Cc2ccccc2)NC(=O)[C@H](CC(N)=O)NC(=O)[C@H](Cc2ccccc2)NC(=O)CSC[C@@H](C(=O)NCC(N)=O)NC(=O)[C@@H]2CCCN2C(=O)[C@H](CCC(N)=O)NC(=O)[C@H](Cc2c[nH]c3ccccc23)NC(=O)[C@H]([C@@H](C)O)NC1=O
B2 had a Kd of 58.3 nM. This Kd is about 3.2-fold higher than that of the molecule before.

B3: Compound 81a (peptide)
peptide: {CH2CO}-FNFEDQSANTWQPCG-NH2
modifications: thioether N-14
SMILES: C[C@@H]1NC(=O)[C@H](CO)NC(=O)[C@H](CCC(N)=O)NC(=O)[C@H](CC(=O)O)NC(=O)[C@H](CCC(=O)O)NC(=O)[C@H](Cc2ccccc2)NC(=O)[C@H](CC(N)=O)NC(=O)[C@H](Cc2ccccc2)NC(=O)CSC[C@@H](C(=O)NCC(N)=O)NC(=O)[C@@H]2CCCN2C(=O)[C@H](CCC(N)=O)NC(=O)[C@H](Cc2c[nH]c3ccccc23)NC(=O)[C@H]([C@@H](C)O)NC(=O)[C@H](CC(N)=O)NC1=O
Consider B3, for which binding was characterised by a dissociation constant (Kd) of 43.4 nM.

B4: Compound 80a (peptide)
peptide: {CH2CO}-FNFEDQSALTWQPCG-NH2
modifications: thioether N-14
SMILES: CC(C)C[C@@H]1NC(=O)[C@H](C)NC(=O)[C@H](CO)NC(=O)[C@H](CCC(N)=O)NC(=O)[C@H](CC(=O)O)NC(=O)[C@H](CCC(=O)O)NC(=O)[C@H](Cc2ccccc2)NC(=O)[C@H](CC(N)=O)NC(=O)[C@H](Cc2ccccc2)NC(=O)CSC[C@@H](C(=O)NCC(N)=O)NC(=O)[C@@H]2CCCN2C(=O)[C@H](CCC(N)=O)NC(=O)[C@H](Cc2c[nH]c3ccccc23)NC(=O)[C@H]([C@@H](C)O)NC1=O
B4: the Kd worked out at 38.8 nM.

B5: Compound 74a (peptide)
peptide: {CH2CO}-FNFEDQSAQTWQPCG-NH2
modifications: thioether N-14
SMILES: C[C@@H]1NC(=O)[C@H](CO)NC(=O)[C@H](CCC(N)=O)NC(=O)[C@H](CC(=O)O)NC(=O)[C@H](CCC(=O)O)NC(=O)[C@H](Cc2ccccc2)NC(=O)[C@H](CC(N)=O)NC(=O)[C@H](Cc2ccccc2)NC(=O)CSC[C@@H](C(=O)NCC(N)=O)NC(=O)[C@@H]2CCCN2C(=O)[C@H](CCC(N)=O)NC(=O)[C@H](Cc2c[nH]c3ccccc23)NC(=O)[C@H]([C@@H](C)O)NC(=O)[C@H](CCC(N)=O)NC1=O
On to B5, for which the dissociation constant (Kd) turned out to be 23.9 nM.

B6: Compound 72a (peptide)
peptide: {CH2CO}-FNFEDQS[NEtAla]DTWQPCG-NH2
modifications: thioether N-14
SMILES: CCN1C(=O)[C@H](CO)NC(=O)[C@H](CCC(N)=O)NC(=O)[C@H](CC(=O)O)NC(=O)[C@H](CCC(=O)O)NC(=O)[C@H](Cc2ccccc2)NC(=O)[C@H](CC(N)=O)NC(=O)[C@H](Cc2ccccc2)NC(=O)CSC[C@@H](C(=O)NCC(N)=O)NC(=O)[C@@H]2CCCN2C(=O)[C@H](CCC(N)=O)NC(=O)[C@H](Cc2c[nH]c3ccccc23)NC(=O)[C@H]([C@@H](C)O)NC(=O)[C@H](CC(=O)O)NC(=O)[C@@H]1C
As for B6, the Kd stood at 20.2 nM.

B7: Compound 84a (peptide)
peptide: {CH2CO}-FNFEDQSAVTWQPCG-NH2
modifications: thioether N-14
SMILES: CC(C)[C@@H]1NC(=O)[C@H](C)NC(=O)[C@H](CO)NC(=O)[C@H](CCC(N)=O)NC(=O)[C@H](CC(=O)O)NC(=O)[C@H](CCC(=O)O)NC(=O)[C@H](Cc2ccccc2)NC(=O)[C@H](CC(N)=O)NC(=O)[C@H](Cc2ccccc2)NC(=O)CSC[C@@H](C(=O)NCC(N)=O)NC(=O)[C@@H]2CCCN2C(=O)[C@H](CCC(N)=O)NC(=O)[C@H](Cc2c[nH]c3ccccc23)NC(=O)[C@H]([C@@H](C)O)NC1=O
In the case of B7, binding was put at a Kd of 52.2 nM.

B8: Compound 77a (peptide)
peptide: {CH2CO}-FNFEDQSAATWQPCG-NH2
modifications: thioether N-14
SMILES: C[C@@H]1NC(=O)[C@H](C)NC(=O)[C@H](CO)NC(=O)[C@H](CCC(N)=O)NC(=O)[C@H](CC(=O)O)NC(=O)[C@H](CCC(=O)O)NC(=O)[C@H](Cc2ccccc2)NC(=O)[C@H](CC(N)=O)NC(=O)[C@H](Cc2ccccc2)NC(=O)CSC[C@@H](C(=O)NCC(N)=O)NC(=O)[C@@H]2CCCN2C(=O)[C@H](CCC(N)=O)NC(=O)[C@H](Cc2c[nH]c3ccccc23)NC(=O)[C@H]([C@@H](C)O)NC1=O
The molecule B8 showed a Kd of 29.2 nM.

B9: Compound 82a (peptide)
peptide: {CH2CO}-FNFEDQSATTWQPCG-NH2
modifications: thioether N-14
SMILES: C[C@@H]1NC(=O)[C@H](CO)NC(=O)[C@H](CCC(N)=O)NC(=O)[C@H](CC(=O)O)NC(=O)[C@H](CCC(=O)O)NC(=O)[C@H](Cc2ccccc2)NC(=O)[C@H](CC(N)=O)NC(=O)[C@H](Cc2ccccc2)NC(=O)CSC[C@@H](C(=O)NCC(N)=O)NC(=O)[C@@H]2CCCN2C(=O)[C@H](CCC(N)=O)NC(=O)[C@H](Cc2c[nH]c3ccccc23)NC(=O)[C@H]([C@@H](C)O)NC(=O)[C@H]([C@@H](C)O)NC1=O
B9: the Kd was 45.8 nM.

B10: Compound 78a (peptide)
peptide: {CH2CO}-FNFEDQSAFTWQPCG-NH2
modifications: thioether N-14
SMILES: C[C@@H]1NC(=O)[C@H](CO)NC(=O)[C@H](CCC(N)=O)NC(=O)[C@H](CC(=O)O)NC(=O)[C@H](CCC(=O)O)NC(=O)[C@H](Cc2ccccc2)NC(=O)[C@H](CC(N)=O)NC(=O)[C@H](Cc2ccccc2)NC(=O)CSC[C@@H](C(=O)NCC(N)=O)NC(=O)[C@@H]2CCCN2C(=O)[C@H](CCC(N)=O)NC(=O)[C@H](Cc2c[nH]c3ccccc23)NC(=O)[C@H]([C@@H](C)O)NC(=O)[C@H](Cc2ccccc2)NC1=O
B10 yielded a Kd of 34.4 nM.

B11: Compound 79a (peptide)
peptide: {CH2CO}-FNFEDQSASTWQPCG-NH2
modifications: thioether N-14
SMILES: C[C@@H]1NC(=O)[C@H](CO)NC(=O)[C@H](CCC(N)=O)NC(=O)[C@H](CC(=O)O)NC(=O)[C@H](CCC(=O)O)NC(=O)[C@H](Cc2ccccc2)NC(=O)[C@H](CC(N)=O)NC(=O)[C@H](Cc2ccccc2)NC(=O)CSC[C@@H](C(=O)NCC(N)=O)NC(=O)[C@@H]2CCCN2C(=O)[C@H](CCC(N)=O)NC(=O)[C@H](Cc2c[nH]c3ccccc23)NC(=O)[C@H]([C@@H](C)O)NC(=O)[C@H](CO)NC1=O
For the molecule B11, the equilibrium dissociation constant (Kd) came to 34.8 nM.

B12: Compound 73a (peptide)
peptide: {CH2CO}-FNFEDQSAETWQPCG-NH2
modifications: thioether N-14
SMILES: C[C@@H]1NC(=O)[C@H](CO)NC(=O)[C@H](CCC(N)=O)NC(=O)[C@H](CC(=O)O)NC(=O)[C@H](CCC(=O)O)NC(=O)[C@H](Cc2ccccc2)NC(=O)[C@H](CC(N)=O)NC(=O)[C@H](Cc2ccccc2)NC(=O)CSC[C@@H](C(=O)NCC(N)=O)NC(=O)[C@@H]2CCCN2C(=O)[C@H](CCC(N)=O)NC(=O)[C@H](Cc2c[nH]c3ccccc23)NC(=O)[C@H]([C@@H](C)O)NC(=O)[C@H](CCC(=O)O)NC1=O
Turning to B12, the affinity, expressed as Kd, was 21.3 nM.
